Measured values: patent US20200140551A1 (GlaxoSmithKline, published 2020)
Positions count from the first letter of the chain named.

What was measured:
Cyno ICOS-Fc = molecular target: T1, Cyno ICOS-Fc (cynomolgus; rabbit, UniProt A0A2K5TQR6 21-140); experiment: SPR, BIAcore T200; antibody captured on anti-human IgG (CM5), ICOS (rabbit Fc) as analyte at 1-256 nM, 25°C, 1:1 model
T1 construct: analyte in the BIAcore T200 run; also called cyno ICOS (rabbit Fc); cynomolgus ICOS; not shown: Rabbit Fc and any linker
T1 sequence: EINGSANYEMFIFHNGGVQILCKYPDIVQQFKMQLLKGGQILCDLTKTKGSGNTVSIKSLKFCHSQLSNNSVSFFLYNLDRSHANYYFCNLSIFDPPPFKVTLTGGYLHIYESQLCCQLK
Method: (§1) The binding kinetics affinity of the humanized H2L5 hIgG4PE antibody was determined used the BIAcore T200 Anti-human IgG on Fc2 of a CM5 chip Anti-ICOS H2L5 hIgG4PE captured on the surface. Anti-human IgG surface blocked with […] hIgG1 control to prevent non-specific binding of rabbit Fc. Human and cyno ICOS (rabbit Fc) passed over the captured antibodies at 256 nM, 64 nM, 16 nM, 4 nM and 1 nM. Buffer alone was used to double reference binding curves. MgCl₂ was used to regenerate surface. Run carried out at 25° C. Data fitted to 1:1 model using T200 evaluation software. Antibody concentration: 2.5 μg/mL
(§2) The ICOS binding data was fitted to a 1:1 kinetics model using the T200 data analysis software.

Human ICOS -Fc = molecular target: T2, Human ICOS -Fc (human; rabbit, UniProt Q9Y6W8 21-140); experiment: as above
T2 construct: analyte in the BIAcore T200 run; also called Human ICOS (rabbit Fc); not shown: rabbit Fc
T2 sequence: T1 sequence with R81H
Method: as §1, §2

[1] = molecular target: T3, human ICOS on human T cells (human, UniProt Q9Y6W8 21-167); experiment: cell-based or functional assay
T3 sequence: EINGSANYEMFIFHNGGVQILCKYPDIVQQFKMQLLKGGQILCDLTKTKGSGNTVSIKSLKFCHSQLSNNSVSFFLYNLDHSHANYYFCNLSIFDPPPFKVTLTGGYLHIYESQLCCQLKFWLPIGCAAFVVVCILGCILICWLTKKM

B1: H2L5 hIgG4PE (antibody)
heavy: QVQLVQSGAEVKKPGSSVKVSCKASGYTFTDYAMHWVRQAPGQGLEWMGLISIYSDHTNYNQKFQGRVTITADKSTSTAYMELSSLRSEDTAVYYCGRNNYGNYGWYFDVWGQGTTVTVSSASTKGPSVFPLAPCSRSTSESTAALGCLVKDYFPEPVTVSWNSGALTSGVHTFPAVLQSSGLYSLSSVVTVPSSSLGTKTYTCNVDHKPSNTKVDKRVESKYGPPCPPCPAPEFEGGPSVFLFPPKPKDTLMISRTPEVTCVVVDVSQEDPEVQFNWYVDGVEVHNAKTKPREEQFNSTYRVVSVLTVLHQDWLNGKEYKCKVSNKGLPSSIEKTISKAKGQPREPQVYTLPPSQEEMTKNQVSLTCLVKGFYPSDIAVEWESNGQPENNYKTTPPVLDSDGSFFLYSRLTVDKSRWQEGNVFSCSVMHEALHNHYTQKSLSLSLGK
light: EIVLTQSPATLSLSPGERATLSCSASSSVSYMHWYQQKPGQAPRLLIYDTSKLASGIPARFSGSGSGTDYTLTISSLEPEDFAVYYCFQGSGYPYTFGQGTKLEIKRTVAAPSVFIFPPSDEQLKSGTASVVCLLNNFYPREAKVQWKVDNALQSGNSQESVTEQDSKDSTYSLSSTLTLSKADYEKHKVYACEVTHQGLSSPVTKSFNRGEC
notes: also called 422 H2L5 hIgG4PE; H2L5 IgG4PE; copies: 2 + 2
- Kd (Cyno ICOS-Fc): 0.949 nM
- koff (Cyno ICOS-Fc): 0.000371 s⁻¹
- kon (Cyno ICOS-Fc): 391000 M⁻¹ s⁻¹
- Kd (Human ICOS -Fc): 1.34 nM
- koff (Human ICOS -Fc): 0.000396 s⁻¹
- kon (Human ICOS -Fc): 297000 M⁻¹ s⁻¹
- EC50, CD4+CD25+, PBMC activation assay, donor 185M45, 24 hr [1]: 2.4 µg/mL
- EC50, CD4+CD25+, PBMC activation assay, donor 185M45, 48 hr [1]: 0.5 µg/mL
- EC50, CD4+CD25+, PBMC activation assay, donor 1124F36, 24 hr [1]: 0.6 µg/mL
- EC50, CD4+CD25+, PBMC activation assay, donor 1124F36, 48 hr [1]: 0.6 µg/mL
- EC50, CD4+CD25+, PBMC activation assay, donor 1136F50, 24 hr [1]: 0.3 µg/mL
- EC50, CD4+CD25+, PBMC activation assay, donor 1136F50, 48 hr [1]: 0.6 µg/mL
- EC50, CD4+CD25+, PBMC activation assay, donor 1149M52, 24 hr [1]: 0.6 µg/mL
- EC50, CD4+CD25+, PBMC activation assay, donor 1149M52, 48 hr [1]: 0.4 µg/mL
- EC50, CD4+CD69+, PBMC activation assay, donor 185M45, 24 hr [1]: 0.8 µg/mL
- EC50, CD4+CD69+, PBMC activation assay, donor 1124F36, 24 hr [1]: 1.1 µg/mL
- EC50, CD4+CD69+, PBMC activation assay, donor 1124F36, 48 hr [1]: 1.1 µg/mL
- EC50, CD4+CD69+, PBMC activation assay, donor 1136F50, 24 hr [1]: 0.5 µg/mL
- EC50, CD4+CD69+, PBMC activation assay, donor 1136F50, 48 hr [1]: 0.4 µg/mL
- EC50, CD4+CD69+, PBMC activation assay, donor 1149M52, 24 hr [1]: 0.5 µg/mL
- EC50, CD4+CD69+, PBMC activation assay, donor 1149M52, 48 hr [1]: 0.4 µg/mL
- EC50, CD4+Ki67+, PBMC activation assay, donor 185M45, 48 hr [1]: 0.6 µg/mL
- EC50, CD4+Ki67+, PBMC activation assay, donor 1124F36, 48 hr [1]: 0.8 µg/mL
- EC50, CD4+Ki67+, PBMC activation assay, donor 1149M52, 48 hr [1]: 0.5 µg/mL
- EC50, CD4+OX40+, PBMC activation assay, donor 185M45, 24 hr [1]: 1.6 µg/mL
- EC50, CD4+OX40+, PBMC activation assay, donor 1124F36, 24 hr [1]: 0.6 µg/mL
- EC50, CD4+OX40+, PBMC activation assay, donor 1124F36, 48 hr [1]: 1.2 µg/mL
- EC50, CD4+OX40+, PBMC activation assay, donor 1136F50, 24 hr [1]: 0.2 µg/mL
- EC50, CD4+OX40+, PBMC activation assay, donor 1136F50, 48 hr [1]: 0.4 µg/mL
- EC50, CD4+OX40+, PBMC activation assay, donor 1149M52, 24 hr [1]: 0.6 µg/mL
- EC50, CD4+OX40+, PBMC activation assay, donor 1149M52, 48 hr [1]: 0.4 µg/mL
- EC50, CD8+CD25+, PBMC activation assay, donor 185M45, 24 hr [1]: 2 µg/mL
- EC50, CD8+CD25+, PBMC activation assay, donor 185M45, 48 hr [1]: 0.5 µg/mL
- EC50, CD8+CD25+, PBMC activation assay, donor 1124F36, 24 hr [1]: 0.6 µg/mL
- EC50, CD8+CD25+, PBMC activation assay, donor 1124F36, 48 hr [1]: 0.5 µg/mL
- EC50, CD8+CD25+, PBMC activation assay, donor 1136F50, 24 hr [1]: 0.4 µg/mL
- EC50, CD8+CD25+, PBMC activation assay, donor 1136F50, 48 hr [1]: 0.7 µg/mL
- EC50, CD8+CD25+, PBMC activation assay, donor 1149M52, 24 hr [1]: 1 µg/mL
- EC50, CD8+CD25+, PBMC activation assay, donor 1149M52, 48 hr [1]: 0.4 µg/mL
- EC50, CD8+CD69+, PBMC activation assay, donor 185M45, 24 hr [1]: 1.2 µg/mL
- EC50, CD8+CD69+, PBMC activation assay, donor 185M45, 48 hr [1]: 0.5 µg/mL
- EC50, CD8+CD69+, PBMC activation assay, donor 1124F36, 24 hr [1]: 0.8 µg/mL
- EC50, CD8+CD69+, PBMC activation assay, donor 1124F36, 48 hr [1]: 1.1 µg/mL
- EC50, CD8+CD69+, PBMC activation assay, donor 1136F50, 24 hr [1]: 0.5 µg/mL
- EC50, CD8+CD69+, PBMC activation assay, donor 1136F50, 48 hr [1]: 0.6 µg/mL
- EC50, CD8+CD69+, PBMC activation assay, donor 1149M52, 24 hr [1]: 0.6 µg/mL
- EC50, CD8+CD69+, PBMC activation assay, donor 1149M52, 48 hr [1]: 0.4 µg/mL
- EC50, CD8+Ki67+, PBMC activation assay, donor 185M45, 48 hr [1]: 0.4 µg/mL
- EC50, CD8+Ki67+, PBMC activation assay, donor 1124F36, 48 hr [1]: 0.7 µg/mL
- EC50, CD8+Ki67+, PBMC activation assay, donor 1149M52, 48 hr [1]: 0.3 µg/mL
- EC50, CD8+OX40+, PBMC activation assay, donor 185M45, 24 hr [1]: 1.6 µg/mL
- EC50, CD8+OX40+, PBMC activation assay, donor 1124F36, 24 hr [1]: 2.4 µg/mL
- EC50, CD8+OX40+, PBMC activation assay, donor 1124F36, 48 hr [1]: 0.5 µg/mL
- EC50, CD8+OX40+, PBMC activation assay, donor 1136F50, 24 hr [1]: 0.3 µg/mL
- EC50, CD8+OX40+, PBMC activation assay, donor 1136F50, 48 hr [1]: 0.5 µg/mL
- EC50, CD8+OX40+, PBMC activation assay, donor 1149M52, 24 hr [1]: 1.5 µg/mL
- EC50, CD8+OX40+, PBMC activation assay, donor 1149M52, 48 hr [1]: 0.3 µg/mL
- EC50, IFN-γ, PBMC activation assay, donor 185M45, 24 hr [1]: 0.3 µg/mL
- EC50, IFN-γ, PBMC activation assay, donor 185M45, 48 hr [1]: 0.7 µg/mL
- EC50, IFN-γ, PBMC activation assay, donor 1124F36, 24 hr [1]: 0.3 µg/mL
- EC50, IFN-γ, PBMC activation assay, donor 1124F36, 48 hr [1]: 0.5 µg/mL
- EC50, IFN-γ, PBMC activation assay, donor 1136F50, 24 hr [1]: 0.4 µg/mL
- EC50, IFN-γ, PBMC activation assay, donor 1136F50, 48 hr [1]: 1.5 µg/mL
- EC50, IFN-γ, PBMC activation assay, donor 1149M52, 24 hr [1]: 0.2 µg/mL
- EC50, IFN-γ, PBMC activation assay, donor 1149M52, 48 hr [1]: 0.6 µg/mL
- EC50, IL-6, PBMC activation assay, donor 185M45, 24 hr [1]: 0.7 µg/mL
- EC50, IL-6, PBMC activation assay, donor 185M45, 48 hr [1]: 0.8 µg/mL
- EC50, IL-6, PBMC activation assay, donor 1136F50, 24 hr [1]: 0.7 µg/mL
- EC50, IL-6, PBMC activation assay, donor 1136F50, 48 hr [1]: 1.1 µg/mL
- EC50, IL-6, PBMC activation assay, donor 1149M52, 24 hr [1]: 0.2 µg/mL
- EC50, IL-6, PBMC activation assay, donor 1149M52, 48 hr [1]: 0.3 µg/mL
- EC50, IL-10, PBMC activation assay, donor 185M45, 24 hr [1]: 0.7 µg/mL
- EC50, IL-10, PBMC activation assay, donor 185M45, 48 hr [1]: 0.8 µg/mL
- EC50, IL-10, PBMC activation assay, donor 1124F36, 24 hr [1]: 0.7 µg/mL
- EC50, IL-10, PBMC activation assay, donor 1124F36, 48 hr [1]: 0.6 µg/mL
- EC50, IL-10, PBMC activation assay, donor 1136F50, 24 hr [1]: 1.7 µg/mL
- EC50, IL-10, PBMC activation assay, donor 1136F50, 48 hr [1]: 1.3 µg/mL
- EC50, IL-10, PBMC activation assay, donor 1149M52, 24 hr [1]: 0.5 µg/mL
- EC50, IL-10, PBMC activation assay, donor 1149M52, 48 hr [1]: 0.6 µg/mL
- EC50, IL-17a, PBMC activation assay, donor 185M45, 24 hr [1]: 0.8 µg/mL
- EC50, IL-17a, PBMC activation assay, donor 185M45, 48 hr [1]: 1.1 µg/mL
- EC50, IL-17a, PBMC activation assay, donor 1124F36, 24 hr [1]: 0.6 µg/mL
- EC50, IL-17a, PBMC activation assay, donor 1124F36, 48 hr [1]: 0.8 µg/mL
- EC50, IL-17a, PBMC activation assay, donor 1136F50, 24 hr [1]: 1.4 µg/mL
- EC50, IL-17a, PBMC activation assay, donor 1136F50, 48 hr [1]: 1.6 µg/mL
- EC50, IL-17a, PBMC activation assay, donor 1149M52, 24 hr [1]: 0.7 µg/mL
- EC50, IL-17a, PBMC activation assay, donor 1149M52, 48 hr [1]: 1 µg/mL
- EC50, TNF-α, PBMC activation assay, donor 185M45, 48 hr [1]: 0.5 µg/mL
- EC50, TNF-α, PBMC activation assay, donor 1124F36, 48 hr [1]: 0.3 µg/mL
- EC50, TNF-α, PBMC activation assay, donor 1136F50, 48 hr [1]: 0.3 µg/mL
- EC50, TNF-α, PBMC activation assay, donor 1149M52, 48 hr [1]: 0.2 µg/mL
